Experimental findings from patent US20220175781A1, “CD40L COMPOSITIONS AND METHODS FOR TUNABLE REGULATION” (Obsidian Therapeutics, Inc., priority 2019, published 2022) are described below.

Residue numbers refer to the chain shown, from its start.

For experiment [1], the system named is Jurkat cells. Kind of experiment: CD40L shedding ELISA of supernatant, Jurkat cells with or without CD40-Fc receptor. The conditions noted are these: 6 hours. The format is cell-based. Also on record: CD40L levels in supernatant: unit not given here. The procedure:
Sheddases e.g. ADAM10/17 present in the tumor microenvironment can cleave CD40L thereby preventing the successful activation of CD40 by CD40L. […] OT-001669 which has a deletion of amino acids 1-13 of CD40L was designed to reduce internalization and OT-001668 which has a deletion of amino acids 110-116 of CD40L was designed to remove the ADAM10/17 sites. Jurkat cells stably expressing the full length construct OT-001661, OT-001669, or OT-001668 were cultured for 6 hours with 1.25 μg/ml recombinant human (h) or mouse (m) CD40-Fc receptor or left untreated and tested using an ELISA assay (Table 15).
A general note: ELISA stands for enzyme-linked immunosorbent assay.

Experiment [2] concerns T cells (CD4 and CD8). Kind of experiment: Cleavage resistant CD40L expression and TMP regulation in T cells. The conditions noted are these: for CD40L expression (percentage of CD40L expressing T cells): day 4. The format is cell-based. The procedure: T cells were transduced with OT-001668 and on day 4, the percentage of CD40L expressing T cells (within the both CD4 and CD8) subpopulations was calculated.
T cells were transduced with ecDHFR regulated construct OT-001671 that include a CD40L protein that was resistant to cleavage. On day 4 cells were treated with 10 μM TMP for 24 hours. […] In an independent experiment, T cells transduced with varying volumes of virus corresponding to OT-001671 were treated with increasing doses of TMP for 24 hours. In Table 41, 0.5 μL, 2 μL, and 10 μL indicate the different volumes of virus that were used.

Experiment [3] has as its system HEK293T cells. Kind of experiment: Surface expression of CD40L trimerization mutants, transfected HEK293T cells (FACS). The format is cell-based, human. The conditions noted are these: transiently transfected HEK293T cells. The procedure:
Mutations were engineered within CD40L payload to reduce the binding affinity of CD40L payload for the CD40L endogenously expressed by cells. Constructs OT-002078, OT-002079, OT-002080, OT-002081, OT-002082 were generated with the CD40L trimerization mutants. HEK293T cells were transiently transfected with the constructs and CD40L expression was measured by FACS.

For experiment [4], the system named is HEK 293T cells. The experiment can be described thus: hDHFR regulated CD40L surface expression, HEK 293T cells (flow cytometry). The conditions noted are these: 50 μM TMP 24 hours. Format: cell-based, human. The procedure:
HEK 293T cells were transiently […] with hDHFR regulated constructs namely OT-001962, OT-001961, OT-001963 for 24 hours. Following transfection, cells were treated with 50 μM TMP for 24 hours and CD40L cell surface expression was measured using flow cytometry. […] CD40L expression in the absence of ligand was virtually undetectable.
A general note: In flow cytometry, cells or beads pass a laser one at a time.

In experiment [5] the test system is Jurkat cells. Kind of experiment: DHFR regulated CD40L expression, transduced Jurkat cells (flow cytometry). The conditions noted are these: for SR: TMP (50 μM) versus Vehicle. The format is cell-based. The procedure: Jurkat cells were transduced with lentiviruses corresponding to OT-001662, OT-001962, OT-001961, OT-001963. 24 hours after transduction, cells were split and treated with DMSO or 50 μM TMP for another 24 hours until flow cytometry-based analysis. The results are shown in Table 37 where SR indicates stabilization ration.

Experiment [6] concerns HEK293T cells. Kind of experiment: Soluble CD40L ELISA, transiently transfected HEK293T cells. Format: cell-based, human. The procedure: Soluble CD40L (sCD40L) constructs OT-001672, OT-001686, OT-001673, OT-001674, OT-001677, and OT-001684 were transiently transfected into HEK293T cells. Cells were treated with one of the following ligands 1 μM Shield-1, 50 μM TMP, 1 μM Bazedoxifene (BZD) or vehicle control.
The pg/mL levels of soluble CD40L were measured by ELISA (Table 14). Recombinant soluble CD40L was used as the standard in the experiments.

Where [7] appears, read: independent experiment with similar setup.

B1: OT-001668: cleavage resistant CD40L construct, deletion of amino acids 110-116 of CD40L to remove the ADAM10/17 sites (protein)
chain: MHMIETYNQTSPRSAATGLPISMKIFMYLLTVFLITQMIGSALFAVYLHRRLDKIEDERNLHEDFVFMKTIQRCNTGERSLSLLNCEEIKSQFEGFVKDIMLNKEETKKENDQNPQIAAHVISEASSKTTSVLQWAEKGYYTMSNNLVTLENGKQLTVKRQGLYYIYAQVTFCSNREASSQAPFIASLCLKSPGRFERILLRAANTHSSAKPCGQQSIHLGGVFELQPGASVFVNVTDPSQVSHGTGFTSFGLLKL
B1: the “CD40L levels in supernatant” value in experiment [1] (1.25 μg/ml hCD40-Fc), in experiment [1] (1.25 μg/ml mCD40-Fc) and in experiment [1] (Untreated) was 10 each time. Moreover, the “shedding of CD40L” value in experiment [1] (untreated or with human or mouse CD40-Fc) is on record as “no shedding”. Moreover, the “CD40L expression (percentage of CD40L expressing T cells)” value was 95.5% in experiment [2] (CD4+) and 86.7% in experiment [2] (CD8+). Besides, in experiment [2] (T cells, day 4, CD4 and CD8 subpopulations), the “expression of CD40L” value was “High expression of CD40L”.

B2: OT-002078: construct with CD40L trimerization mutant (protein)
chain: MGGSGGGSGGGSGMIETYNQTSPRSAATGLPISMKIFMYLLTVFLITQMIGSALFAVYLHRRLDKIEDERNLHEDFVFMKTIQRCNTGERSLSLLNCEEIKSQFEGFVKDIMLNKEETKKENSFEMQKGDQNPQIAAHVISEASSKTTSVLQWAEKGYYTMSNNLVTLENGKQLTVKRQGLYYIYAQVTFCSNREASSQAPFIASLCLKSPGRFERILLRAANTHSSAKPCGQQSIGLFGVFELQPGASVFVNVTDPSQVSHGTGFTSFGLLKL
Regarding B2, in experiment [3], the “% CD40L positive” value is reported as 49.7%.

B3: OT-002079: construct with CD40L trimerization mutant (protein)
chain: B2 chain with F239H
As for B3, in experiment [3], the “% CD40L positive” value is 64.7%.

B4: OT-002082: construct with CD40L trimerization mutant (protein)
chain: B2 chain with H138G, G237H, F239G, G240F
Consider B4, for which the “% CD40L positive” value in experiment [3] amounted to 0.028%.

B5: OT-002080: construct with CD40L trimerization mutant (protein)
chain: B2 chain with Y185G, G237H
Turning to B5, in experiment [3], the “% CD40L positive” value was 0.11%.

B6: OT-001669: CD40L construct with deletion of amino acids 1-13 of CD40L, designed to reduce internalization (protein)
chain: MHATGLPISMKIFMYLLTVFLITQMIGSALFAVYLHRRLDKIEDERNLHEDFVFMKTIQRCNTGERSLSLLNCEEIKSQFEGFVKDIMLNKEETKKENSFEMQKGDQNPQIAAHVISEASSKTTSVLQWAEKGYYTMSNNLVTLENGKQLTVKRQGLYYIYAQVTFCSNREASSQAPFIASLCLKSPGRFERILLRAANTHSSAKPCGQQSIHLGGVFELQPGASVFVNVTDPSQVSHGTGFTSFGLLKL
In the case of B6, the results for the “CD40L levels in supernatant” value in experiment [1] (1.25 μg/ml hCD40-Fc), in experiment [1] (1.25 μg/ml mCD40-Fc) and in experiment [1] (Untreated) were 8444.30, 4335.76 and 2137.69, respectively. For the same molecule, the “shedding of CD40L” value in experiment [1] (1.25 μg/ml recombinant human CD40-Fc) was “enhance the shedding”.

B7: OT-001961: hDHFR regulated CD40L construct (protein)
chain: MVGSLNCIVAVSQNMGIGKNGDLPWPPLRNEFRYFQRMTTTSSVEGKQNLVIMGKKTWFSIPEKNRPLKGRINLVLSRELKEPPQGAHFLSRSLDDALKLTEQPELANKVDMVWIVGGSSVIKEAMNHPGHLKLFVTRIMQDFESDTFFPEIDLEKYKLLPEYPGVLSDVQEEKGIKYKFEVYEKNDHMIETYNQTSPRSAATGLPISMKIFMYLLTVFLITQMIGSALFAVYLHRRLDKIEDERNLHEDFVFMKTIQRCNTGERSLSLLNCEEIKSQFEGFVKDIMLNKEETKKENSFEMQKGDQNPQIAAHVISEASSKTTSVLQWAEKGYYTMSNNLVTLENGKQLTVKRQGLYYIYAQVTFCSNREASSQAPFIASLCLKSPGRFERILLRAANTHSSAKPCGQQSIHLGGVFELQPGASVFVNVTDPSQVSHGTGFTSFGLLKL
Turning to B7, the “% CD40L” value in experiment [4] is on record as 14.6%. Further, the “% CD40L expression” value in experiment [5] (TMP (50 μM)) worked out at 3.5%; in experiment [5] (Vehicle (DMSO)), 2%. The molecule also showed an SR in experiment [5] of 1.8.

B8: OT-001963: hDHFR regulated CD40L construct (protein)
chain: B7 chain with K55R, N65K
As to B8, the “% CD40L” value in experiment [4] amounted to 13.3%. Also, the results for the “% CD40L expression” value in experiment [5] (TMP (50 μM)) and in experiment [5] (Vehicle (DMSO)) were 20% and 2%, respectively. Moreover, the SR in experiment [5] is on record as 10.

B9: OT-001677: Soluble CD40L (sCD40L) construct (protein)
chain: GSSLALSLTADQMVSALLDAEPPILYSEYDPTRPFSEASMMGLLTNLADRELVHMINWAKRVPGFVDLTLHDQVHLLECAWMEILMIGLVWRSMEHPGKLLFAPNLLLDRDQGKCVEGGVEIFDMLLATSSRFRMMNLQGEEFVCLKSIILLNSGVYTFLSSTLKSLEEKDHIHRVLDKITDTLIHLMAKAGLTLQQQHQRLAQLLLILSHIRHMSNKRMEHLYSMKCKNVVPLSDLLLEMLDAHRLGSMHMQKGDQNPQIAAHVISEASSKTTSVLQWAEKGYYTMSNNLVTLENGKQLTVKRQGLYYIYAQVTFCSNREASSQAPFIASLCLKSPGRFERILLRAANTHSSAKPCGQQSIHLGGVFELQPGASVFVNVTDPSQVSHGTGFTSFGLLKL
Take B9: in experiment [6] (setting [7]), the Stabilization Ratio worked out at 7.2 and the “basal expression in the absence of ligand” value is reported as “very low basal expression”.

B10: OT-001684: Soluble CD40L (sCD40L) construct (protein)
chain: B9 chain with T69A, D111N, N217S
As for B10, the “Stabilization Ratio” value in experiment [6] (soluble CD40L +Ligand versus Vehicle, HEK293T cells) is given as 1.0.
